Reference: patent US20090117551

Columns and labels:
[1] = tested on: GFP-caspase-3 recognition peptide inserted modified protein
[2] = tested on: GFP-trypsin recognition peptide inserted modified protein

Row | Substance | FRET between quantum dot and GFP after protease treatment (30 C, 120 minutes) [1] | peak wavelength of fluorescence intensity [1] | FRET between quantum dot and GFP after protease treatment (37 C, 120 minutes) [2] | FRET waveform pattern, simultaneous DNase/trypsin assay (QD565 with GFP of FIG. 5A) [2] | peak wavelength of fluorescence intensity [2]
1 | Caspase-3 (Medical & Biological Laboratories) | the disappearance of FRET was observed | shifted from 510 nm (untreated with trypsin) to 506 nm (treated with trypsin) | – | – | –
2 | Trypsin | – | – | the disappearance of FRET was observed | it was observed that the peak around 510 nm shifted | shifted from 513 nm (untreated with trypsin) to 508 nm (treated with trypsin)
